# Source: patent publication US20070148663A1 (TRUSTEES OF COLUMBIA UNIVERSITY IN THE CITY OF NEW YORK, published 2007)
# B1: GST-EB1 (other, mouse, UniProt Q61166 1-268, looked up)
# chain: MAVNVYSTSVTSDNLSRHDMLAWINESLQLNLTKIEQLCSGAAYCQFMDMLFPGSIALKKVKFQAKLEHEYIQNFKILQAGFKRMGVDKIIPVDKLVKGKFQDNFEFVQWFKKFFDANYDGKEYDPVAARQGQETAVAPSLVAPALSKPKKPLGSSTAAPQRPIATQRTTAAPKAGPGMVRKNPGVGNGDDEAAELMQQVKVLKLTVEDLEKERDFYFGKLRNIELICQENEGENDPVLQRIVDILYATDEGFVIPDEGGPQEEQEEY
# notes: not shown: glutathione S-transferase (GST) tag, N-terminal, vector pGEX-2T
# B2: GST-APC-C1 (amino acids 2674-2843) (other, UniProt P25054 2674-2843, looked up)
# chain: SPTGNTPPVIDSVSEKANPNIKDSKDNQAKQNVGNGSVPMRTVGLENRLNSFIQVDAPDQKGTEIKPGQNNPVPVSETNESSIVERTPFSSSSSSKHSSPSGTVAARVTPFNYNPSPRKSSADSTSARPSQIPTPVNNNTKKRDSKTDSTESSGTQSPKRHSGSYLVTSV
# notes: range 2674-2843; Gift from R. Baer; not shown: glutathione S-transferase (GST) tag
# How the values were obtained:
# GST-EB1 = biological target: B1; assay: GST pull-down of 35S-labelled in vitro translated protein, autoradiography
# From the text: (§1) EB1 and APC interact with mDia. (a) Binding of in vitro transcribed and translated ³⁵S-labelled ΔGBD-mDia2 to the indicated GST-tagged constructs of EB1 and APC (bottom). Arrows indicate full-length GST-APC-C or GST-APC-basic proteins. Additional bands detected in the GST-APC-C and GST-APC-basic lanes are presumed to be breakdown products. (b) Binding of in vitro transcribed and translated ³⁵S-labelled mDia2 fragments to GST-EB1, GST and GST-APC-C. (c) Binding of Flag-mDia1 expressed in COS-7 cells to GST-EB1 and GST-APC-C in the presence of DMSO, nocodazole (NZ) and latrunculin A (Lat A). Bound proteins were detected by western blotting with antibodies to Flag-mDia1, tubulin and actin. […] Bound His-mDia was detected by western blotting with an anti-His antibody. (e) Endogenous mDia1 and EB1 co-immunoprecipitate with APC. Mouse brain extracts and COS-7 cell lysates were immunoprecipitated with APC antibodies and precipitates analyzed for APC, mDia1 and EB1 by western blotting with the indicated antibodies. IgG, non-immune immunoglobulin G used for control immunoprecipitation. (f) Schematic representation of the interactions between mDia, EB1 and APC. EB1 and APC bind to mDia through different domains than they use to bind to each other. Note that although EB1 and APC bind to the FH1-FH2 region of mDia, the individual binding sites within this domain have not been mapped. The molecules are not drawn to scale.
# (§2) mDia2 transcripts labeled with ³⁵S-methionine (Amersham Biosciences) were generated with Quick-Coupled Transcription/Translation Systems (Promega). Equal molar amounts of GST, GST-EB1 or GST-APC on beads were incubated with labeled transcripts for 2 h at 4° C. in PBS containing 1% Triton X-100 and protease inhibitors. After washing, bound proteins were eluted with SDS sample buffer and analyzed by SDS-PAGE. Gels were incubated for 15-30 min in Amplify (Amersham Biosciences), dried and autoradiographed for 1-24 h. Flag-mDia1 (40) was transfected into COS-7 cells, lysates prepared and treated with 0.5 μM latrunculin A, 10 μM nocodazole or DMSO for 1 h on ice.
# [1] = biological target: T1, GST-APC-C (amino acids 2167-2843) (UniProt P25054 2167-2843); assay: as above
# T1 construct: range 2167-2843; Gift from R. Baer; not shown: glutathione S-transferase (GST) tag
# From the text: as §1, §2
# [2] = biological target: T2, His-521-1040-mDia2 (purified recombinant protein) (UniProt Q9Z207 521-1040); assay: direct binding of purified recombinant proteins, GST pull-down, anti-His western blot
# T2 construct: also called His-mDia; not shown: His tag of vector pQE-30 (detected with RGS-His antibody)
# From the text: Bound proteins were detected by western blotting with antibodies to Flag-mDia1, tubulin and actin. […] Bound His-mDia was detected by western blotting with an anti-His antibody. (e) Endogenous mDia1 and EB1 co-immunoprecipitate with APC. Mouse brain extracts and COS-7 cell lysates were immunoprecipitated with APC antibodies and precipitates analyzed for APC, mDia1 and EB1 by western blotting with the indicated antibodies. IgG, non-immune immunoglobulin G used for control immunoprecipitation. (f) Schematic representation of the interactions between mDia, EB1 and APC. EB1 and APC bind to mDia through different domains than they use to bind to each other. Note that although EB1 and APC bind to the FH1-FH2 region of mDia, the individual binding sites within this domain have not been mapped. The molecules are not drawn to scale.
# mDia2 transcripts labeled with ³⁵S-methionine (Amersham Biosciences) were generated with Quick-Coupled Transcription/Translation Systems (Promega). […] After washing, bound proteins were eluted with SDS sample buffer and analyzed by SDS-PAGE. […] The treated lysates were incubated with GST-tagged constructs as described above and analyzed by western blotting with mouse anti-Flag-M2 antibody (1:10,000; Sigma), rabbit anti-tubulin10 (W2; 1:50,000) and mouse anti-actin (C4D6; 1:50,000). […] Bound proteins were analyzed by western blotting with mouse RGS-His antibody (1:10,000).
# [3] = biological target: B2; assay: GST pull-down from COS-7 lysates, anti-GFP western blot
# From the text: Residues of EB1 that were mutated to the indicated residues (below) are shaded in grey. (b) Diagram of GST-APC constructs used in this study. APC has a microtubule-binding site (labeled ‘Basic’) and a separate EB1-binding site in its C-terminus. (c) Pull-down analysis of wild type (WT) EB1-C-GFP and mutant EB1-C-GFPs by GST-APC-C1 and GST-p150^Glued (1-330). Western blots were probed with anti-GFP antibody. (d) The ability of EB1-C-GFP wild type (WT) and mutants to inhibit LPA-stimulated Glu-MTs in serum-starved 3T3 cells. All EB1-C-GFP constructs were expressed at equivalent levels on the basis of GFP fluorescence. Error bars represent the standard error from at least three independent experiments. (e) EB1-GFP and EB1-C-GFP interact with endogenous APC in cells. COS-7 cells were transiently transfected and immunoprecipitated as indicated. Western blots of the immunoprecipitates were probed with EB1 antibody. […] Cells expressing APC (untagged) were detected with antibody to APC. […]
# For binding of wild-type and mutant EB1-C-GFP to APC or p150^Glued, COS-7 cells were transfected with EB1-C-GFP constructs and lysed in PBS containing 1% Triton X-100 and protease inhibitors. […] Bound proteins were analyzed by western blotting with rabbit anti-GFP (1:10,000; BD Transduction Laboratory). […] Bound proteins were eluted with SDS sample buffer and analyzed by western blotting for EB1.
# ΔGBDΔDADG(YEKR)-mDia2 = biological target: T3, ΔGBDΔDADG(YEKR)-mDia2 (UniProt Q9Z207 258-1030, limits assumed, 35S-methionine label (in the binding assay)); assay: GST pull-down of 35S-labelled in vitro translated protein, autoradiography
# T3 construct: a GFP-myc-tagged form was expressed in 3T3 cells for the Glu-MT assay; also called G(YEKR) mutation
# From the text: as §1, §2
# [4] = biological target: T4, mDia2 FH2 domain fragment, in vitro transcribed and translated, 35S-labelled (UniProt Q9Z207 615-1013, limits assumed, 35S-methionine label); assay: as above
# T4 construct: domain: FH2
# From the text: as §1, §2
# T2 sequence (Q9Z207 521-1040): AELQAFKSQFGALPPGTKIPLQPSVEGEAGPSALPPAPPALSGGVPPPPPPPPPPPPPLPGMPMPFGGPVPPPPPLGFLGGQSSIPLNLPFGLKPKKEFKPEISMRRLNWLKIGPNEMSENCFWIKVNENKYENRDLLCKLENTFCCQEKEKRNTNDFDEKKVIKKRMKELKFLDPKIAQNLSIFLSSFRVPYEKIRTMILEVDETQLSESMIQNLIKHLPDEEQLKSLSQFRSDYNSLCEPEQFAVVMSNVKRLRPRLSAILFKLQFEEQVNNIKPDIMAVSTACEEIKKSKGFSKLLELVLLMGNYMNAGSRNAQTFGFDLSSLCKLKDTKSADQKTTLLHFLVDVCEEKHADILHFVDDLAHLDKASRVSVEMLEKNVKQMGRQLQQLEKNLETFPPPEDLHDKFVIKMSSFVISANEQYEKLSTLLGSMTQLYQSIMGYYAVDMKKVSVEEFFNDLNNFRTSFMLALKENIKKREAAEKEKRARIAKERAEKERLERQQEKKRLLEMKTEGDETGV
# T4 sequence (Q9Z207 615-1013 limits assumed): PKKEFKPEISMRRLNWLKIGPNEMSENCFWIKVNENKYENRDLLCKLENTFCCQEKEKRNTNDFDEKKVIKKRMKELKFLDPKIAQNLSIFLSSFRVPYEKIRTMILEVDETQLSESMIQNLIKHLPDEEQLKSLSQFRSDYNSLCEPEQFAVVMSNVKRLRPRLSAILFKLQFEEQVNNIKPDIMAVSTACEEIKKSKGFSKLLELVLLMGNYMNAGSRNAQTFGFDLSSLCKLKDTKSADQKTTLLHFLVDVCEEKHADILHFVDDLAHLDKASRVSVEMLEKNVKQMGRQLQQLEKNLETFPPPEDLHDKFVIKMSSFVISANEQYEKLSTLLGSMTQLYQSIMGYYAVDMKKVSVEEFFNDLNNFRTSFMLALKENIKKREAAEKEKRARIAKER
# T3 sequence (Q9Z207 other isoform, or with tags, fused parts or gaps mutant limits assumed): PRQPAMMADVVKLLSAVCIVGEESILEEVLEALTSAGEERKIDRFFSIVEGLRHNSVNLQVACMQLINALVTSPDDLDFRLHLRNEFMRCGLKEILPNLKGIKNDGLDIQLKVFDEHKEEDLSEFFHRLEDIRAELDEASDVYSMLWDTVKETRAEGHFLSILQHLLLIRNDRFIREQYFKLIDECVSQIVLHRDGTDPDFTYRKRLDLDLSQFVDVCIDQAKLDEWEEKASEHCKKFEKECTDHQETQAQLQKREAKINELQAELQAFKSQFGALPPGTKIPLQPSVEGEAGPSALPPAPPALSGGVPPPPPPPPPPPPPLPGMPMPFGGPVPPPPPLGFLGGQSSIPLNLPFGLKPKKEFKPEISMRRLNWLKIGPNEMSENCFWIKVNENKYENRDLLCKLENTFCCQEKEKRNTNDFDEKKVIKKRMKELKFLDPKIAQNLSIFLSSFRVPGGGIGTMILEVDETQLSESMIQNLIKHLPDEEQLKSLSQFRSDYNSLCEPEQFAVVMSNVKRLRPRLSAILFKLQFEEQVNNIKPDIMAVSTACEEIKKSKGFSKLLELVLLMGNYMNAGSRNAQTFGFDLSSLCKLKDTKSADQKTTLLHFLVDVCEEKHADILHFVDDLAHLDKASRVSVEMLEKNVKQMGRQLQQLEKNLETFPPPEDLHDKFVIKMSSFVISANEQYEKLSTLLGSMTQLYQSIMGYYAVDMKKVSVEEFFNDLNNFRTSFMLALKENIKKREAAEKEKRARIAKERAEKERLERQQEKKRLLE
binding result [2],binding result [3],Binder,also measured
,,"mDia2 FH1 domain fragment, in vitro transcribed and translated, 35S-labelled (other, UniProt Q9Z207 540-610, looked up, 35S-methionine label, domain: FH1) PLQPSVEGEAGPSALPPAPPALSGGVPPPPPPPPPPPPPLPGMPMPFGGPVPPPPPLGFLGGQSSIPLNLP",binding result (GST-EB1): no binding; binding result [1]: no binding
no binding (tested: 0.3 µM),,"GST-EB1-C (other, mouse, UniProt Q61166 165-268, looked up, range 165-268; also called glutathione S-transferase fused to EB1-C; not shown: glutathione S-transferase (GST) tag, N-terminal, vector pGEX-2T) ATQRTTAAPKAGPGMVRKNPGVGNGDDEAAELMQQVKVLKLTVEDLEKERDFYFGKLRNIELICQENEGENDPVLQRIVDILYATDEGFVIPDEGGPQEEQEEY",
,no binding,"EB1-C-KR-GFP (other, mouse, UniProt Q61166 165-268, looked up, range 165-268; not shown: GFP tag (vector pGFP-NKB)) ATQRTTAAPKAGPGMVRKNPGVGNGDDEAAELMQQVKVLKLTVEDLEKERDFYFGALANIELICQENEGENDPVLQRIVDILYATDEGFVIPDEGGPQEEQEEY",
,no binding,"EB1-C-EEKR-GFP (other, mouse, UniProt Q61166 165-268, looked up, range 165-268; not shown: GFP tag (vector pGFP-NKB)) ATQRTTAAPKAGPGMVRKNPGVGNGDDEAAELMQQVKVLKLTVEDLAKARDFYFGALANIELICQENEGENDPVLQRIVDILYATDEGFVIPDEGGPQEEQEEY",
,,B1,binding result (ΔGBDΔDADG(YEKR)-mDia2): no binding; binding result [4]: no binding
no binding (tested: 0.3 µM),,B2,
